In patent publication EP4328239A1 (dated 2024):

Experiments:
[1] = target: T1, MAGEA1 peptide on HLA-B*44:03 (human); test: luciferase kill assay, 18 h; TCR-transduced CD8+ T cells against K562-HLA-B4403-MAGE-A1, cells that express the antigen (full-length MAGEA1); two donors; full-length, on cells
T1 peptide: LAETSYVKVL

[2] = target: T2, MAGEA1 peptide on HLA-B*44:03 (human); test: cytokine release
T2 peptide: AETSYVKVL

[3] = target: T3, MAGEA1 peptide on HLA-B*44:03 (human); test: cytokine release
T3 peptide: AETSYVKVLE

[4] = target: T4, MAGEA1 peptide on HLA-B*44:03 (human); test: cytokine release
T4 peptide: ALAETSYVKV

[5] = target: T5, MAGEA1 peptide on HLA-B*07:02 (human); test: luciferase kill assay, 18 h; TCR-transduced CD8+ T cells against K562-HLA-B0702-MAGE-A1, cells that express the antigen (full-length MAGEA1); full-length, on cells
T5 peptide: RVRFFFPSL

[6] = target: T6, MAGEA1 peptide on HLA-B*07:02 (human); test: cytokine release
T6 peptide: ARVRFFFPSL

[7] = target: T7, MAGEA1 peptide on HLA-B*07:02 (human); test: cytokine release
T7 peptide: RVRFFFPSLR

[8] = target: T8, MAGEA1 peptide on HLA-A*02:01 (human); test: luciferase kill assay, 18 h; TCR-transduced CD8+ T cells against K562-HLA-A0201-MAGE-A1, cells that express the antigen (full-length MAGEA1); full-length, on cells
T8 peptide: KVLEYVIKV

[9] = target: T9, MAGEA1 peptide on HLA-A*02:01 (human); test: cytokine release
T9 peptide: KVLEYVIKVS

[10] = target: T10, MAGEA1 peptide on HLA-A*02:01 (human); test: cytokine release
T10 peptide: VKVLEYVIKV

[11] = target: T11, MAGEA1 peptide on HLA-B*44:03 (human); test: killing
T11 peptide: EEGPSTSCI

[12] = target: T12, MAGEA1 peptide on HLA-B*44:03 (human); test: killing
T12 peptide: KVADLVGFLL

[13] = target: T13, MAGEA1 peptide on HLA-B*44:03 (human); test: cytokine release
T13 peptide: ADLVGFLLLK

[14] = target: T14, MAGEA1 peptide on HLA-B*44:03 (human); test: cytokine release
T14 peptide: VADLVGFLL

[15] = target: T15, MAGEA1 peptide on HLA-B*57:03 (human); test: cytokine release
T15 peptide: VADLVGFLL

[16] = target: T16, MAGEA1 peptide on HLA-B*57:03 (human); test: cytokine release
T16 peptide: KVADLVGFL

[17] = target: T17, MAGEA1 peptide on HLA-A*03:01 (human); test: cytokine release
T17 peptide: ESLFRAVITK

[18] = target: T18, MAGEA1 peptide on HLA-A*03:01 (human); test: cytokine release
T18 peptide: LFRAVITKK

[19] = target: T19, MAGEA1 peptide on HLA-A*03:01 (human); test: cytokine release
T19 peptide: SLFRAVITKK

[20] = target: T20, MAGEA1 peptide on HLA-A*26:01 (human); test: cytokine release
T20 peptide: EVYDGREHSA

[21] = target: T21, MAGEA1 peptide on HLA-A*29:02 (human); test: cytokine release
T21 peptide: DLVGFLLLKY

[22] = target: T22, MAGEA1 peptide on HLA-A*29:02 (human); test: cytokine release
T22 peptide: LVGFLLLKY

B1: TCR5 (TCR, V domains shown)
Valpha: GQQLNQSPQSMFIQEGEDVSMNCTSSSIFNTWLWYKQEPGEGPVLLIALYKAGELTSNGRLTAQFGITRKDSFLNISASIPSDVGIYFCAGLRDNYGQNFVFGPGTRLSVLP
Vbeta: DGGITQSPKYLFRKEGQNVTLSCEQNLNHDAMYWYRQDPGQGLRLIYYSQIVNDFQKGDIAEGYSVSREKKESFPLTVTSAQKNPTAFYLCASRVGGFEGYTFGSGTRLTVV
EC50 killing capacity (E:T ratio at which 50% of target cells were killed) [1]: 0.4 E:T ratio | binding result [2]: recognises | binding result [3]: recognises | binding result [4]: recognises

B2: TCR18.2 (TCR, V domains shown)
Valpha: GQQVMQIPQYQHVQEGEDFTTYCNSSTTLSNIQWYKQRPGGHPVFLIQLVKSGEVKKQKRLTFQFGEAKKNSSLHITATQTTDVGTYFCANRDNYGQNFVFGPGTRLSVLP
Vbeta: EAQVTQNPRYLITVTGKKLTVTCSQNMNHEYMSWYRQDPGLGLRQIYYSMNVEVTDKGDVPEGYKVSRKEKRNFPLILESPSPNQTSLYFCASTRTGTLPEAFFGQGTRLTVV
EC50 killing capacity (E:T ratio at which 50% of target cells were killed) [5]: 20 E:T ratio | binding result [6]: recognises | binding result [7]: recognises

B3: TCR20 (TCR, V domains shown)
Valpha: QKEVEQNSGPLSVPEGAIASLNCTYSDRGSQSFFWYRQYSGKSPELIMFIYSNGDKEDGRFTAQLNKASQYVSLLIRDSQPSDSATYLCAVNAPRPGYSTLTFGKGTMLLVSP
Vbeta: DVKVTQSSRYLVKRTGEKVFLECVQDMDHENMFWYRQDPGLGLRLIYFSYDVKMKEKGDIPEGYSVSREKKERFSLILESASTNQTSMYLCASSLSMNTEAFFGQGTRLTVV
EC50 killing capacity (E:T ratio at which 50% of target cells were killed) [8]: 0.8 E:T ratio | binding result [9]: recognises | binding result [10]: recognises

B4: TCR8 (TCR, V domains shown)
Valpha: GQNIDQPTEMTATEGAIVQINCTYQTSGFNGLFWYQQHAGEAPTFLSYNVLDGLEEKGRFSSFLSRSKGYSYLLLKELQMKDSASYLCAPSSNTGKLIFGQGTTLQVKP
Vbeta: DAGVIQSPRHEVTEMGQEVTLRCKPISGHNSLFWYRQTMMRGLELLIYFNNNVPIDDSGMPEDRFSAKMPNASFSTLKIQPSEPRDSAVYFCASSLPQETQYFGPGTRLLVL
binding result [11]: recognises

B5: TCR6 (TCR, V domains shown)
Valpha: QKEVEQNSGPLSVPEGAIASLNCTYSDRGSQSFFWYRQYSGKSPELIMFIYSNGDKEDGRFTAQLNKASQYVSLLIRDSQPSDSATYLCAVSSNTGKLIFGQGTTLQVKP
Vbeta: DAGVIQSPRHEVTEMGQEVTLRCKPISGHNSLFWYRQTMMRGLELLIYFNNNVPIDDSGMPEDRFSAKMPNASFSTLKIQPSEPRDSAVYFCASKWGQGAGDTQYFGPGTRLTVL
binding result [12]: recognises | binding result [13]: recognises | binding result [14]: recognises

B6: TCR18.1 (TCR, V domains shown)
Valpha: GQQVMQIPQYQHVQEGEDFTTYCNSSTTLSNIQWYKQRPGGHPVFLIQLVKSGEVKKQKRLTFQFGEAKKNSSLHITATQTTDVGTYFCANRDNYGQNFVFGPGTRLSVLP
Vbeta: EAQVTQNPRYLITVTGKKLTVTCSQNMNHEYMSWYRQDPGLGLRQIYYSMNVEVTDKGDVPEGYKVSRKEKRNFPLILESPSPNQTSLYFCASSRTSGISYEQYFGPGTRLTVT
binding result [6]: recognises | binding result [7]: recognises

B7: TCR23 (TCR, V domains shown)
Valpha: AQKVTQAQTEISVVEKEDVTLDCVYETRDTTYYLFWYKQPPSGELVFLIRRNSFDEQNEISGRYSWNFQKSTSSFNFTITASQVVDSAVYFCALSVTYTGNQFYFGTGTSLTVIP
Vbeta: DSGVTQTPKHLITATGQRVTLRCSPRSGDLSVYWYQQSLDQGLQFLIQYYNGEERAKGNILERFSAQQFPDLHSELNLSSLELGDSALYFCASSVQGQGTDTQYFGPGTRLTVL
binding result [6]: recognises | binding result [7]: recognises

B8: TCR19 (TCR, V domains shown)
Valpha: AQTVTQSQPEMSVQEAETVTLSCTYDTSENNYYLFWYKQPPSRQMILVIRQEAYKQQNATENRFSVNFQKAAKSFSLKISDSQLGDTAMYFCAFISGYSTLTFGKGTMLLVSP
Vbeta: EAQVTQNPRYLITVTGKKLTVTCSQNMNHEYMSWYRQDPGLGLRQIYYSMNVEVTDKGDVPEGYKVSRKEKRNFPLILESPSPNQTSLYFCASRTSHPQTYEQYFGPGTRLTVT
binding result [6]: recognises | binding result [7]: recognises

B9: TCR1 (TCR, V domains shown)
Valpha: GNSVTQMEGPVTLSEEAFLTINCTYTATGYPSLFWYVQYPGEGLQLLLKATKADDKGSNKGFEATYRKETTSFHLEKGSVQVSDSAVYFCALSGGGSYIPTFGRGTSLIVHP
Vbeta: EAGVAQSPRYKIIEKRQSVAFWCNPISGHATLYWYQQILGQGPKLLIQFQNNGVVDDSQLPKDRFSAERLKGVDSTLKIQPAKLEDSAVYLCASSSPGQLNTEAFFGQGTRLTVV
binding result [15]: recognises | binding result [16]: recognises

B10: TCR22 (TCR, V domains shown)
Valpha: SQQGEEDPQALSIQEGENATMNCSYKTSINNLQWYRQNSGRGLVHLILIRSNEREKHSGRLRVTLDTSKKSSSLLITASRAADTASYFCATDEGGAQKLVFGQGTRLTINP
Vbeta: DVKVTQSSRYLVKRTGEKVFLECVQDMDHENMFWYRQDPGLGLRLIYFSYDVKMKEKGDIPEGYSVSREKKERFSLILESASTNQTSMYLCATVGRGEDRGEQFFGPGTRLTVL
binding result [17]: recognises | binding result [18]: recognises | binding result [19]: recognises

B11: TCR24 (TCR, V domains shown)
Valpha: KNQVEQSPQSLIILEGKNCTLQCNYTVSPFSNLRWYKQDTGRGPVSLTIMTFSENTKSNGRYTATLDADTKQSSLHITASQLSDSASYICVVSNNAGNMLTFGGGTRLMVKP
Vbeta: DAMVIQNPRYQVTQFGKPVTLSCSQTLNHNVMYWYQQKSSQAPKLLFHYYDKDFNNEADTPDNFQSRRPNTSFCFLDIRSPGLGDTAMYLCATSRESLGRDEQFFGPGTRLTVL
binding result [17]: recognises | binding result [18]: recognises | binding result [19]: recognises

B12: TCR2 (TCR, V domains shown)
Valpha: AQKITQTQPGMFVQEKEAVTLDCTYDTSDPSYGLFWYKQPSSGEMIFLIYQGSYDQQNATEGRYSLNFQKARKSANLVISASQLGDSAMYFCASREGSARQLTFGSGTQLTVLP
Vbeta: DVKVTQSSRYLVKRTGEKVFLECVQDMDHENMFWYRQDPGLGLRLIYFSYDVKMKEKGDIPEGYSVSREKKERFSLILESASTNQTSMYLCASDSADTQYFGPGTRLTVL
binding result [20]: recognises

B13: TCR4 (TCR, V domains shown)
Valpha: AQSVTQLGSHVSVSEGALVLLRCNYSSSVPPYLFWYVQYPNQGLQLLLKYTSAATLVKGINGFEAEFKKSETSFHLTKPSAHMSDAAEYFCAVSNSGNTPLVFGKGTRLSVIA
Vbeta: AAGVIQSPRHLIKEKRETATLKCYPIPRHDTVYWYQQGPGQDPQFLISFYEKMQSDKGSIPDRFSAQQFSDYHSELNMSSLELGDSALYFCASSSTTGDGYTFGSGTRLTVV
binding result [21]: recognises | binding result [22]: recognises
